Paper PMC6026317, “Molecular elements in FGF19 and FGF21 defining KLB/FGFR activity and specificity” (Molecular Metabolism, 2018)

Tests used:
[1] = target: Human β-Klotho (KLB) on 293/KLB cells (human) (UniProt Q86Z14)
[2] = target: Human β-Klotho (KLB) on 293/KLB cells (human) (UniProt Q86Z14); remark: listed apart in the source

Sequence of Human β-Klotho (KLB) on 293/KLB cells (human) (Q86Z14 whole entry): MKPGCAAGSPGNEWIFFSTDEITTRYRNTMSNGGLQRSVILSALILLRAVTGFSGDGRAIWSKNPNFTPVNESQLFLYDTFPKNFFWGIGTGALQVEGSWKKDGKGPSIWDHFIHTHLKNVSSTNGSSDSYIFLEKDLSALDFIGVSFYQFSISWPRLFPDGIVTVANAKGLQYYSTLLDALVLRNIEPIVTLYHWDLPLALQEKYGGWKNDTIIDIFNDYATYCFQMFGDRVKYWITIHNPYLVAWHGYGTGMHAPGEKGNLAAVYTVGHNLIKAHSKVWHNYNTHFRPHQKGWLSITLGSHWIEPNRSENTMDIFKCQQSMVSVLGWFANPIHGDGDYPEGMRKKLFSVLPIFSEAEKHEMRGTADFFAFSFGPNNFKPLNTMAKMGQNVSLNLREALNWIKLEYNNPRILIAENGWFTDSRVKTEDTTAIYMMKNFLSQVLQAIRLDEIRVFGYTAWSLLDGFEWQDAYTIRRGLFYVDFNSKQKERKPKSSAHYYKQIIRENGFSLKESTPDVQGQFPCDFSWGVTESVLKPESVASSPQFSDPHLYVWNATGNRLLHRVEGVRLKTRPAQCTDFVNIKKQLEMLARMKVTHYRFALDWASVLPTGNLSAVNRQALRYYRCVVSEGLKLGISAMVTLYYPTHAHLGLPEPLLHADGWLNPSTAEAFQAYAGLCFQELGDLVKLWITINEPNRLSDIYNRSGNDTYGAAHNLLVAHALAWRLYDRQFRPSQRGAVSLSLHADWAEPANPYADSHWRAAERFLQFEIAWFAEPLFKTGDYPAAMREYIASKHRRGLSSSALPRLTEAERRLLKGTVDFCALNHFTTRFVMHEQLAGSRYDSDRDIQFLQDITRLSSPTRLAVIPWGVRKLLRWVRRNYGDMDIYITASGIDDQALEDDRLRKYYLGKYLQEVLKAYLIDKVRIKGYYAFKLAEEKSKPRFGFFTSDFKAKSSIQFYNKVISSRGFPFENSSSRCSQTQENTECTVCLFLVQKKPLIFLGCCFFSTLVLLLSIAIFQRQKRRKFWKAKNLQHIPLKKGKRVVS
Sequence of FGF21-19A hybrid (Q9NSA1 other isoform, or with tags, fused parts or gaps): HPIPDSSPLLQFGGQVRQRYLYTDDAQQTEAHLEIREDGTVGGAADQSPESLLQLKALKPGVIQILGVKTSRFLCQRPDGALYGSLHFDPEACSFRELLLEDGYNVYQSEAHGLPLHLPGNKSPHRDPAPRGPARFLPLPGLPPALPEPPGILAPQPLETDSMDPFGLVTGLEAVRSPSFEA
Sequence of 19C26,A^26 (O95750 other isoform, or with tags, fused parts or gaps): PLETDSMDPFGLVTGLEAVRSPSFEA

Row | potency of inhibition of FGF21 and FGF19 pERK signalling in 293/KLB cells, relative to 19C26, 21C25 and FGF21^18−181 [1] [fold] | pERK agonism in 293/KLB and Hep3B cells, potency relative to native FGF21 [2] [fold] | Substance
1 | > 20 | – | 19C26,A^26 (from UniProt O95750 191-216) (peptide)
2 | – | 10 | FGF21-19A hybrid (from UniProt Q9NSA1 29-184; O95750 191-216) (ligand)
